These results are taken from patent publication US9952227B2, “Method for detecting bilirubin” (Research Foundation of the City University of New York, priority 2015, dated 2018).

A short description of data set [1]: Fluorescence excitation and emission spectra. In kind it is physicochemical. The protocol: In Chlopsid FP I and Chlopsid FP II this amino acid is a histidine. This difference in amino acid sequence can potentially explain the fluorescence shift, due to an increase in the π conjugation of the system.
Fluorescence Spectroscopy: Fluorescence excitation and emission spectra were recorded using a F-7000 Hitachi Fluorescence Spectrometer.

Data set [2] can be described thus: Fluorescence quantum yield. Format: physicochemical. The protocol: The fluorescence quantum yield of Chlopsid FP I was determined to be 0.47. […] These values are close to the reported quantum yield for UnaG of 0.51 (Table 1). Two prolines in the Gly-Pro-Pro sequence motif were mutated to glycine.
In another data set the test system is mammalian cells. The data set is described as follows: Fluorescence of expressed protein in mammalian cells upon addition of exogenous bilirubin. Format: cell-based. The text has this: (§1) Hayashi and Toda reported that Anguilla japonica (heavily farmed in Japanese aquaculture and a historical staple of Japanese cuisine) was weakly green fluorescent. They purified a fluorescent protein from A. japonica muscle tissue and isolated and sequenced several peptide fragments. […] Then in 2013, Kumagai et al., published a full characterization of the fluorescent protein from A. japonica. […] The Kaupichthys hyoproroides and Kaupichthys n. sp. data was re-examined and found a single transcript in each of the two species' transcriptomes that encoded an FABP including the Gly-Pro-Pro insertion. […] These proteins, termed Chlopsid FP I and Chlopsid FP II, are orthologs of UnaG (FIG. 1). FIG. 1 depicts sequence alignment of fluorescent FABPs from eels with a non-fluorscent FABP from Kaupichthys hyoproroides (Chlopsid NFP) and human brain FABP-7. Areas of homology are identified with solid lines boxes. The GPP sequence motif is identified with a dotted lined box.

The next data set relates to E. coli. The data set is described as follows: Fluorescence of expressed protein in E. coli upon addition of exogenous bilirubin. In kind it is cell-based.
Text: as §1
Protein Expression and Purification. Candidate ORFs were selected from eel transcriptome data containing an unusual sequence motif (Gly-Pro-Pro) on a loop between two beta sheets in the FABP sequence. […] Protein concentration was determined by A280 measurements, using calculated extinction coefficients of 15,300 M^−1 cm^−1 for Chlopsid FP I, and 16,600 M^−1 cm^−1 for Chlopsid FP II. […]

The conditions of data set [3]: reference fluorescent protein; cited from earlier work.
The conditions of data set [4]: reported value for reference fluorescent protein; cited from earlier work.
A further data set has as its system HEK293 cells. The data set is described as follows: Expression of Chlopsid FP I in HEK293 cells, single and two-photon imaging. In kind it is cell-based. As for the experimental part:
Expression in Mammalian Cells: Chlopsid FP I was expressed in mammalian cells (HEK293) without the addition of bilirubin. […] The two-photon excitation was fairly flat from 700-1000 nm with a peak at 860 nm and an unusual dip at 840 nm.
Expression of Chlopsid FP I in HEK293 Cells: A pCS2+vector was used for cloning of Chlopsid FP I for expression in HEK293 cells (ATCC, USA) using Kpn-Sphl cloning sites. Plasmids were prepared by Genscript USA, Inc. The expression was driven in HEK293 cells (ATCC, USA) by CMV promotor. The HEK293 cell line was maintained in Dulbecco's Modified Eagle Medium (High Glucose) (DMEM) (Invitrogen, USA), supplemented with 10% fetal bovine serum (FBS) (Sigma-Aldrich, USA), in a 37° C. incubator with 5% CO2. Transient transfection was performed using 2 μg of DNA per 35 mm dish and 5 μg of Lipofectamine 2000 (Invitrogen, N.Y.). Cells were imaged on a custom-made 2-photon microscope using a Chameleon Ti-Sapphire laser (Coherent Inc, CA) and water immersion 20×/0.95 N.A. objective (Olympus, Japan). Images were taken using 850 nm laser light with power of 15 mW at the objective.

“And” between values parts separate entries of the source, which are not always exact repeats. Identical values can stand only once. Like-named read-outs stand apart in the source and are kept apart here.

B1: Chlopsid FP II: bilirubin-inducible fluorescent fatty acid-binding protein from Kaupichthys n. sp., SEQ ID NO: 2 (protein)
chain: MFEDFLGTWECIDSQNFGAYLAAVGAPPVLSDRADATRPTVYFNRDGDKLSLKVEHGPPPLKDVILSFKLGEEFDEHPTDGRKCKTLVTFEGDKLLYLQKWDGKETVVVREIRDGNVVATLSHEGVVALRVYKKVAGPTA
modifications: Kaupichthys hyoproroides
As to B1, in data set [1], the “Ex/Em maxima: emission maximum” value is 527 nm and 524 nm; the “Ex/Em maxima: excitation maximum” value was 498 nm and 490 nm. Also, in data set [2], the Fluorescence quantum yield is recorded as 0.37. Moreover, the “Fluorescence upon addition of exogenous bilirubin” value (from here on “Fluorescence upon addition”) in the data set on mammalian cells is given as “strong green fluorescence”. The “Fluorescence upon addition” value with E. coli is listed as “strong green fluorescence”.

B2: UnaG: bilirubin inducible fluorescent protein from Anguilla japonica, novel member of the FABP family (protein, UniProt P0DM59 1-139, looked up)
Bilirubin-inducible …: MVEKFVGTWKIADSHNFGEYLKAIGAPKELSDGGDATTPTLYISQKDGDKMTVKIENGPPTFLDTQVKFKLGEEFDEFPSDRRKGVKSVVNLVGEKLVYVQKWDGKETTYVREIKDGKLVVTLTMGDVVAVRSYRRATE
As to B2, in data set [3], the “Ex/Em maxima: emission maximum” value was 523 nm and 530 nm; the “Ex/Em maxima: excitation maximum” value was 489 nm and 498 nm. Moreover, in data set [4], the Fluorescence quantum yield was 0.51.

B3: Chlopsid FP I: bilirubin-inducible fluorescent fatty acid-binding protein from Kaupichthys hyoproroides, SEQ ID NO: 1 (protein)
chain: MFEDFLGTWKCIDSQNFGAYLAAIGAPPVLSERADATRPTVHFNRDGDKLSLKVEHGPPPLKDVLLSFKLGEEFDEHPTDGRKCKTLVTFEGDKLLYLQKWDGKETVVVREIRDGNVVATLSHEGVVALRVYKKVAGPTALE
modifications: Kaupichthys hyoproroides
With B3, in data set [1], the “Ex/Em maxima: emission maximum” value was 527 nm and 524 nm; the “Ex/Em maxima: excitation maximum” value was 498 nm and 490 nm. The molecule also came in with a Fluorescence quantum yield in data set [2] of 0.47. Further, the Two-photon excitation dip in the data set on HEK293 cells (HEK293) is recorded as 840 nm. The molecule also displayed a Two-photon excitation peak in the data set on HEK293 cells (HEK293, excitation fairly flat from 700-1000 nm) of 860 nm. Moreover, in the data set with HEK293 cells (HEK293, without the addition of bilirubin, single and two-photon imaging), the “Fluorescence of expressing cells” value is listed as “bright fluorescence”. Besides, the “Fluorescence upon addition” value in the data set on mammalian cells is recorded as “strong green fluorescence”. For the same molecule, the “Fluorescence upon addition” value in the data set on E. coli is reported as “strong green fluorescence”.
